Data reported in publication PMC10786891, “Massively parallel profiling of RNA-targeting CRISPR-Cas13d”.

T1: EsCas13d, nuclease-dead (Eubacterium siraeum, UniProt B0MS50, R295A;H300A;R849A;H854A)
T1 sequence: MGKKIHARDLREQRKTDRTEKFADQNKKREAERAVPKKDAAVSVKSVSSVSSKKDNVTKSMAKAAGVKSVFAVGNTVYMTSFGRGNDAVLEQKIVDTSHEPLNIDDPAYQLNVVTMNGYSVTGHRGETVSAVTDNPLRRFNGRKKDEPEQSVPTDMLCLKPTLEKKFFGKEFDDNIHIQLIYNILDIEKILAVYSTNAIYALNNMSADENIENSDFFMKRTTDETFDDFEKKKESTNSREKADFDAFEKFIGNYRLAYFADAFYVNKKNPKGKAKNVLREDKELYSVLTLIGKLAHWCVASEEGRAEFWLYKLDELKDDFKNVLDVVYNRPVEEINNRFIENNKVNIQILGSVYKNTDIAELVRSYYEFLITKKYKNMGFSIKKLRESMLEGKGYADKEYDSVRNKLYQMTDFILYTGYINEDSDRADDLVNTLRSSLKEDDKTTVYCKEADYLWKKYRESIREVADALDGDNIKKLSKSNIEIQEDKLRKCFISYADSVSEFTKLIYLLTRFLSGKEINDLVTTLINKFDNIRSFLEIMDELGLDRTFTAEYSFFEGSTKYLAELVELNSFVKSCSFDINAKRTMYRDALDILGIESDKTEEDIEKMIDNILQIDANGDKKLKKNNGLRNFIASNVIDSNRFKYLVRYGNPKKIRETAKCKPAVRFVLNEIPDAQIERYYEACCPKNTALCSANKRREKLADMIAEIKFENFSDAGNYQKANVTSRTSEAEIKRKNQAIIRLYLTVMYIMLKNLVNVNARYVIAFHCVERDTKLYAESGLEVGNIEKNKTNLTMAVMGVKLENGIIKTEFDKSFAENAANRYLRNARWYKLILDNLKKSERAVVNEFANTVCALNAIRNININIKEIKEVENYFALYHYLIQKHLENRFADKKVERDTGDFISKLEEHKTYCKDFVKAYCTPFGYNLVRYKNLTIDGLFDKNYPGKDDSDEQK

B1: target 1 MT 5'PFS UUG 3'PFS ACC (mixed)
RNA 1: CACCCGUGCAAAAAUGCAGGGGUCUAAAACUGAGCGGAUAACCUCUCUAUGG
RNA 2: GGGAAUGGAUCCACAUCUACGAAUUCUUGCCAUAGAGAGGUUAUCCGCUCAACCAGAUCGGAAGAGCACACGU
B2: target 1 MT 5'PFS GCC 3'PFS CUG (mixed)
RNA 1: CACCCGUGCAAAAAUGCAGGGGUCUAAAACUGAGCGGAUAACCUCUCUAUGG
RNA 2: GGGAAUGGAUCCACAUCUACGAAUUCGCCCCAUAGAGAGGUUAUCCGCUCACUGAGAUCGGAAGAGCACACGU
B3: target 1 MT 5'PFS UAA 3'PFS UAA (mixed)
RNA 1: CACCCGUGCAAAAAUGCAGGGGUCUAAAACUGAGCGGAUAACCUCUCUAUGG
RNA 2: GGGAAUGGAUCCACAUCUACGAAUUCUAACCAUAGAGAGGUUAUCCGCUCAUAAAGAUCGGAAGAGCACACGU
B4: target 1 MT 5'PFS AGG 3'PFS UGC (mixed)
RNA 1: CACCCGUGCAAAAAUGCAGGGGUCUAAAACUGAGCGGAUAACCUCUCUAUGG
RNA 2: GGGAAUGGAUCCACAUCUACGAAUUCAGGCCAUAGAGAGGUUAUCCGCUCAUGCAGAUCGGAAGAGCACACGU
B5: target 1 MT 5'PFS CUU 3'PFS ACC (mixed)
RNA 1: CACCCGUGCAAAAAUGCAGGGGUCUAAAACUGAGCGGAUAACCUCUCUAUGG
RNA 2: GGGAAUGGAUCCACAUCUACGAAUUCCUUCCAUAGAGAGGUUAUCCGCUCAACCAGAUCGGAAGAGCACACGU
B6: target 1 MT 5'PFS GUG 3'PFS AGG (mixed)
RNA 1: CACCCGUGCAAAAAUGCAGGGGUCUAAAACUGAGCGGAUAACCUCUCUAUGG
RNA 2: GGGAAUGGAUCCACAUCUACGAAUUCGUGCCAUAGAGAGGUUAUCCGCUCAAGGAGAUCGGAAGAGCACACGU
B7: target 1 MT 5'PFS UAA 3'PFS UAU (mixed)
RNA 1: CACCCGUGCAAAAAUGCAGGGGUCUAAAACUGAGCGGAUAACCUCUCUAUGG
RNA 2: GGGAAUGGAUCCACAUCUACGAAUUCUAACCAUAGAGAGGUUAUCCGCUCAUAUAGAUCGGAAGAGCACACGU
B8: target 1 MT 5'PFS CUU 3'PFS CCC (mixed)
RNA 1: CACCCGUGCAAAAAUGCAGGGGUCUAAAACUGAGCGGAUAACCUCUCUAUGG
RNA 2: GGGAAUGGAUCCACAUCUACGAAUUCCUUCCAUAGAGAGGUUAUCCGCUCACCCAGAUCGGAAGAGCACACGU
B9: target 1 insC 3' of 12,insC 3' of 9 (mixed)
RNA 1: CACCCGUGCAAAAAUGCAGGGGUCUAAAACUGAGCGGAUAACCUCUCUAUGG
RNA 2: GGGAAUGGAUCCACAUCUACGAAUUCGUACCAUAGAGAGGCUUACUCCGCUCACCGAGAUCGGAAGAGCACACGU
B10: target 1 MT 5'PFS AGU 3'PFS UCC (mixed)
RNA 1: CACCCGUGCAAAAAUGCAGGGGUCUAAAACUGAGCGGAUAACCUCUCUAUGG
RNA 2: GGGAAUGGAUCCACAUCUACGAAUUCAGUCCAUAGAGAGGUUAUCCGCUCAUCCAGAUCGGAAGAGCACACGU
B11: target 1 MT 5'PFS GAC 3'PFS CGU (mixed)
RNA 1: CACCCGUGCAAAAAUGCAGGGGUCUAAAACUGAGCGGAUAACCUCUCUAUGG
RNA 2: GGGAAUGGAUCCACAUCUACGAAUUCGACCCAUAGAGAGGUUAUCCGCUCACGUAGAUCGGAAGAGCACACGU
B12: target 1 MT 5'PFS GCC 3'PFS CUA (mixed)
RNA 1: CACCCGUGCAAAAAUGCAGGGGUCUAAAACUGAGCGGAUAACCUCUCUAUGG
RNA 2: GGGAAUGGAUCCACAUCUACGAAUUCGCCCCAUAGAGAGGUUAUCCGCUCACUAAGAUCGGAAGAGCACACGU
B13: target 1 MT 5'PFS GGG 3'PFS UCC (mixed)
RNA 1: CACCCGUGCAAAAAUGCAGGGGUCUAAAACUGAGCGGAUAACCUCUCUAUGG
RNA 2: GGGAAUGGAUCCACAUCUACGAAUUCGGGCCAUAGAGAGGUUAUCCGCUCAUCCAGAUCGGAAGAGCACACGU
B14: target 1 MT 5'PFS UAA 3'PFS UAC (mixed)
RNA 1: CACCCGUGCAAAAAUGCAGGGGUCUAAAACUGAGCGGAUAACCUCUCUAUGG
RNA 2: GGGAAUGGAUCCACAUCUACGAAUUCUAACCAUAGAGAGGUUAUCCGCUCAUACAGAUCGGAAGAGCACACGU
B15: target 1 MT 5'PFS GUG 3'PFS CGC (mixed)
RNA 1: CACCCGUGCAAAAAUGCAGGGGUCUAAAACUGAGCGGAUAACCUCUCUAUGG
RNA 2: GGGAAUGGAUCCACAUCUACGAAUUCGUGCCAUAGAGAGGUUAUCCGCUCACGCAGAUCGGAAGAGCACACGU
B16: target 1 MT 5'PFS GGG 3'PFS UCG (mixed)
RNA 1: CACCCGUGCAAAAAUGCAGGGGUCUAAAACUGAGCGGAUAACCUCUCUAUGG
RNA 2: GGGAAUGGAUCCACAUCUACGAAUUCGGGCCAUAGAGAGGUUAUCCGCUCAUCGAGAUCGGAAGAGCACACGU
B17: target 1 MT 5'PFS GUG 3'PFS AGU (mixed)
RNA 1: CACCCGUGCAAAAAUGCAGGGGUCUAAAACUGAGCGGAUAACCUCUCUAUGG
RNA 2: GGGAAUGGAUCCACAUCUACGAAUUCGUGCCAUAGAGAGGUUAUCCGCUCAAGUAGAUCGGAAGAGCACACGU
B18: target 1 MT 5'PFS GUG 3'PFS CGG (mixed)
RNA 1: CACCCGUGCAAAAAUGCAGGGGUCUAAAACUGAGCGGAUAACCUCUCUAUGG
RNA 2: GGGAAUGGAUCCACAUCUACGAAUUCGUGCCAUAGAGAGGUUAUCCGCUCACGGAGAUCGGAAGAGCACACGU
B19: target 1 MT 5'PFS GAA 3'PFS AUA (mixed)
RNA 1: CACCCGUGCAAAAAUGCAGGGGUCUAAAACUGAGCGGAUAACCUCUCUAUGG
RNA 2: GGGAAUGGAUCCACAUCUACGAAUUCGAACCAUAGAGAGGUUAUCCGCUCAAUAAGAUCGGAAGAGCACACGU
B20: target 1 MT 5'PFS CUC 3'PFS UAU (mixed)
RNA 1: CACCCGUGCAAAAAUGCAGGGGUCUAAAACUGAGCGGAUAACCUCUCUAUGG
RNA 2: GGGAAUGGAUCCACAUCUACGAAUUCCUCCCAUAGAGAGGUUAUCCGCUCAUAUAGAUCGGAAGAGCACACGU
B21: target 1 insA 3' of 11,insG 3' of 2 (mixed)
RNA 1: CACCCGUGCAAAAAUGCAGGGGUCUAAAACUGAGCGGAUAACCUCUCUAUGG
RNA 2: GGGAAUGGAUCCACAUCUACGAAUUCGUACCAUAGAGAGGUAUAUCCGCUCGACCGAGAUCGGAAGAGCACACGU
B22: target 1 MT 5'PFS GGG 3'PFS UCA (mixed)
RNA 1: CACCCGUGCAAAAAUGCAGGGGUCUAAAACUGAGCGGAUAACCUCUCUAUGG
RNA 2: GGGAAUGGAUCCACAUCUACGAAUUCGGGCCAUAGAGAGGUUAUCCGCUCAUCAAGAUCGGAAGAGCACACGU
B23: target 1 MT 5'PFS GCC 3'PFS CUC (mixed)
RNA 1: CACCCGUGCAAAAAUGCAGGGGUCUAAAACUGAGCGGAUAACCUCUCUAUGG
RNA 2: GGGAAUGGAUCCACAUCUACGAAUUCGCCCCAUAGAGAGGUUAUCCGCUCACUCAGAUCGGAAGAGCACACGU
B24: target 1 MT 5'PFS GGG 3'PFS AAA (mixed)
RNA 1: CACCCGUGCAAAAAUGCAGGGGUCUAAAACUGAGCGGAUAACCUCUCUAUGG
RNA 2: GGGAAUGGAUCCACAUCUACGAAUUCGGGCCAUAGAGAGGUUAUCCGCUCAAAAAGAUCGGAAGAGCACACGU
B25: target 1 MT 5'PFS GCC 3'PFS CUU (mixed)
RNA 1: CACCCGUGCAAAAAUGCAGGGGUCUAAAACUGAGCGGAUAACCUCUCUAUGG
RNA 2: GGGAAUGGAUCCACAUCUACGAAUUCGCCCCAUAGAGAGGUUAUCCGCUCACUUAGAUCGGAAGAGCACACGU
B26: target 1 MT 5'PFS GGG 3'PFS UCU (mixed)
RNA 1: CACCCGUGCAAAAAUGCAGGGGUCUAAAACUGAGCGGAUAACCUCUCUAUGG
RNA 2: GGGAAUGGAUCCACAUCUACGAAUUCGGGCCAUAGAGAGGUUAUCCGCUCAUCUAGAUCGGAAGAGCACACGU
B27: target 1 MT 5'PFS GUG 3'PFS CGA (mixed)
RNA 1: CACCCGUGCAAAAAUGCAGGGGUCUAAAACUGAGCGGAUAACCUCUCUAUGG
RNA 2: GGGAAUGGAUCCACAUCUACGAAUUCGUGCCAUAGAGAGGUUAUCCGCUCACGAAGAUCGGAAGAGCACACGU
B28: target 1 insC 3' of 17,insC 3' of 10 (mixed)
RNA 1: CACCCGUGCAAAAAUGCAGGGGUCUAAAACUGAGCGGAUAACCUCUCUAUGG
RNA 2: GGGAAUGGAUCCACAUCUACGAAUUCGUACCAUAGCAGAGGUUCAUCCGCUCACCGAGAUCGGAAGAGCACACGU

Each binder was assayed against T1, EsCas13d, nuclease-dead (assay: crRNA (strand 1, pre-loaded); Mg2+; 40 mM Tris-HCl pH 7.5, 150 mM NaCl, 6 mM MgCl2, 1 mM DTT, 0.1% Tween-20, 0.2 mg/ml BSA; 25 C; 10 min per concentration, then washed). Details: tags: His6-TwinStrep-SUMO cleaved; N-terminal SNAP kept (SNAP-Surface 488); label: 3' end held by stalled T7 RNA polymerase.
B1 showed a Kd of 53 ± 23.5 nM. In the case of B2, the Kd is reported as 17 ± 6 nM. In the case of B3, the Kd is reported as 46.5 ± 12 nM. B4 was tested, and the Kd was ~110 nM. B5 gave a Kd of ~24 nM. B6 was tested, and the Kd was 28.7 ± 1.75 nM. For B7, the Kd was 29 ± 6 nM. B8 gave a Kd of 80 ± 40 nM. Binder B9 has a Kd of 21.9 ± 1 nM. Binder B10 has a Kd of 29 ± 11.5 nM. Binder B11 has a Kd of 15.5 ± 5 nM. In the case of B12, the Kd is reported as 13.2 ± 3.15 nM. With B13 the Kd was 28 ± 5 nM. B14 was tested, and the Kd was 28 ± 7.5 nM. B15 was tested, and the Kd was 22.6 ± 1.7 nM. Work on B16 yielded a Kd of 20.7 ± 3.55 nM. B17 showed a Kd of 11.4 ± 0.8 nM. In the case of B18, the Kd is reported as 23.4 ± 1.85 nM. With B19 the Kd was 32 ± 7.5 nM. With B20 the Kd was ~60 nM. Binder B21 has a Kd of 17.4 ± 0.8 nM. Work on B22 yielded a Kd of 18.6 ± 3.75 nM. For B23, the Kd was 33 ± 15 nM. Work on B24 yielded a Kd of 50 ± 11.5 nM. Binder B25 has a Kd of 15.6 ± 5.05 nM. B26 showed a Kd of 14.6 ± 2.1 nM. B27 gave a Kd of 22.9 ± 2.2 nM. B28 showed a Kd of 52 ± 18 nM.
